Assay results reported in US20140004175A1 (COMPUGEN, published 2014).

T1: recombinant human Ang1 carrier-free (R&D Systems, Cat#923-AN-025/CF) (human, UniProt Q15389 20-498, limits assumed)
T1 construct: Bought recombinant protein; also called angiopoietin 1
T1 sequence: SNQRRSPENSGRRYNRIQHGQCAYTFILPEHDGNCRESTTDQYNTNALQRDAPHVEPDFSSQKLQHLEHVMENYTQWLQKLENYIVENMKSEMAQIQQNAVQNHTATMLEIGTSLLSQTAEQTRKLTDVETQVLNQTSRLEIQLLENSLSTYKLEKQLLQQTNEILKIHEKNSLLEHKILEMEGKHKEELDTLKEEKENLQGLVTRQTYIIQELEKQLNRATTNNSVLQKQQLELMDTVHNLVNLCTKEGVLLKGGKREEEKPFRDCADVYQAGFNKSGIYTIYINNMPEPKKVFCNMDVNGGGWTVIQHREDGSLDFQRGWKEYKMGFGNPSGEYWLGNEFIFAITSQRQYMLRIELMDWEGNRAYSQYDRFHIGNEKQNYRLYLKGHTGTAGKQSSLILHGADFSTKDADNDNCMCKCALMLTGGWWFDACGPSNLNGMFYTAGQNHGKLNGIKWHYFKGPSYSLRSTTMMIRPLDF

T2: recombinant human Ang2 carrier-free (R&D Systems, Cat#623-AN-025/CF) (human, UniProt O15123 19-496)
T2 construct: Bought recombinant protein; also called angiopoietin 2
T2 sequence: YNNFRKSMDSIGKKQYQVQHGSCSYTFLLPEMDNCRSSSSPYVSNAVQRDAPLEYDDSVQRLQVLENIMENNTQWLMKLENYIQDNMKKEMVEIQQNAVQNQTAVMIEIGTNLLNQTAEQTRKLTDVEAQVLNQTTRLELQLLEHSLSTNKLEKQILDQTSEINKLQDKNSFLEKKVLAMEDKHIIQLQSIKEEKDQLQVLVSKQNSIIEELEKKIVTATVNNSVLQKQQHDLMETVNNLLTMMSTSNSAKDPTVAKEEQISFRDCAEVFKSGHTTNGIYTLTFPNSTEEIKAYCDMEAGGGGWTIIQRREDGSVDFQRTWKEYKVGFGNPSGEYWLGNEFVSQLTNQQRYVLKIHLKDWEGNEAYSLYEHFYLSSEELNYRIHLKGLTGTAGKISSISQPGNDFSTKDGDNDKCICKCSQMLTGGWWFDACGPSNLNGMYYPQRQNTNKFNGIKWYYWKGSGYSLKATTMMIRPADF

T3: recombinant human Ang4 carrier-free (R&D Systems, Cat#964-AN-025/CF) (human, UniProt Q9Y264 25-503, limits assumed)
T3 construct: Bought recombinant protein; also called angiopoietin 4
T3 sequence: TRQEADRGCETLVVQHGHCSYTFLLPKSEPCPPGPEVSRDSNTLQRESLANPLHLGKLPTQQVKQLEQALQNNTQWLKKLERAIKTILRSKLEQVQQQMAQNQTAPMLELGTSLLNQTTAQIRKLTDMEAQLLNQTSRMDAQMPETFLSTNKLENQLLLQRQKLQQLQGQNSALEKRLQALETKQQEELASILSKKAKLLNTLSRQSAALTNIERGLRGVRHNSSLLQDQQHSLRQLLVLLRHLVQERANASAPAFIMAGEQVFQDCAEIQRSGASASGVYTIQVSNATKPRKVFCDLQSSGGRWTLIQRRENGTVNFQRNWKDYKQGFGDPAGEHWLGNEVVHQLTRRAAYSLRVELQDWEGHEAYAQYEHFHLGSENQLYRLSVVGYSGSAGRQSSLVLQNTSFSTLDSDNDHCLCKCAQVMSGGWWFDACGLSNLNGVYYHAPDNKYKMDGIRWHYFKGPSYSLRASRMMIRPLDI


Experiments:
[1] = biological target: T1, recombinant human Ang1 carrier-free …; assay: SPR competition (BIAcore), Tie-2/Fc immobilised; Ang1 100-500 nM with peptide 10-50 µM at 1:100
Description: Peptide-protein interaction was analyzed using surface plasmon resonance. Analysis of is the interaction between CGEN-G6 [SEQ ID NO: 6], CGEN-F9 [SEQ ID NO: 7], CGEN-C6 [SEQ ID NO: 9], CGEN-A11 [SEQ ID NO: 10], and CGEN-G2 [SEQ ID NO: 11] peptides and recombinant human Tie-2/Fc chimera (carrier-free, R&D Systems, Cat#313-TI, Lot#BKC0707121) was conducted using the BIAcore biosensor (Pharmacia Biosensor, Uppsala, Sweden). The recombinant Tie-2/Fc chimera was immobilized directly to a CM5 sensor chip. Solutions containing 10-50 μM of CGEN-G6 [SEQ ID NO: 6], CGEN-F9 [SEQ ID NO: 7], CGEN-C6 [SEQ ID NO: 9], CGEN-A11 [SEQ ID NO: 10], and CGEN-G2 [SEQ ID NO: 11] were injected into the sample chamber of the BIACORE device at a rate of 20 μl/min and the interaction was monitored using surface plasmon resonance. In addition, solutions containing 100-500 nM of Ang1, Ang2, and Ang4 proteins were injected alone or in combination with 10-50 μM of CGEN-G6 [SEQ ID NO: 6], CGEN-F9 [SEQ ID NO: 7], CGEN-C6 [SEQ ID NO: 9], CGEN-A11 [SEQ ID NO: 10], and CGEN-G2 [SEQ ID NO: 11] peptides at a constant ratio of 1:100 (Ang ligand to peptide) into the sample chamber of the BIACORE device at a rate of 20 μl/min and the interaction was monitored using surface plasmon resonance.
Binding of Ang2 to Tie2 was reduced by 91-100% after incubation with CGEN-G6 [SEQ ID NO: 6] and CGEN-C6 [SEQ ID NO: 9], and to a lesser extent after incubation with CGEN-A11 [SEQ ID NO: 10] and CGEN-F9 [SEQ ID NO: 7] peptides (FIG. 5B). […] Binding of peptides alone to Tie2 was negligible in most cases.

[2] = biological target: T2, recombinant human Ang2 carrier-free …; assay: SPR (BIAcore), Ang2 immobilised on CM5, peptide 10-50 µM
Description: (§1) Peptide-protein binding was analyzed using surface plasmon resonance. Analysis of the to interaction between CGEN-H2 [SEQ ID NO: 1], CGEN-H3 [SEQ ID NO: 2], CGEN-A8 [SEQ ID NO: 3], CGEN-H7 [SEQ ID NO: 4], CGEN-G4 [SEQ ID NO: 5], CGEN-G6 [SEQ ID NO: 6], CGEN-F9 [SEQ ID NO: 7], CGEN-F12 [SEQ ID NO: 8], CGEN-C6 [SEQ ID NO: 9], CGEN-A11 [SEQ ID NO: 10], and CGEN-G2 [SEQ ID NO: 11] peptides and recombinant human Ang1 carrier-free (R&D Systems, Cat#923-AN-025/CF, Lot#FHW1507031), human Ang2 carrier-free (R&D Systems, Cat#623-AN-025/CF, Lot#BNO0457121), and human Ang4 carrier-free (R&D Systems, Cat#964-AN-025/CF, Lot#ELM025121) was conducted using the BIAcore biosensor (Pharmacia Biosensor, Uppsala, Sweden). The recombinant Ang1, Ang2, and Ang4 were immobilized directly to a CM5 sensor chip. Solutions containing 10-50 μM of CGEN-H2 [SEQ ID NO: 1], CGEN-H3 [SEQ ID NO: 2], CGEN-A8 [SEQ ID NO: 3], CGEN-H7 [SEQ ID NO: 4], CGEN-G4 [SEQ ID NO: 5], CGEN-G6 [SEQ ID NO: 6], CGEN-F9 [SEQ ID NO: 7], CGEN-F12 [SEQ ID NO: 8], CGEN-C6 [SEQ ID NO: 9], CGEN-A11 [SEQ ID NO: 10], and CGEN-G2 [SEQ ID NO: 11] peptides were injected into the sample chamber of the BIACORE device at a rate of […] and the interaction was monitored using surface plasmon resonance. […] Binding of CGEN-C6 to Ang2 was not sufficiently strong and too noisy for kinetic measurements or determination of affinity constant.

[3] = biological target: T3, recombinant human Ang4 carrier-free …; assay: SPR (BIAcore), Ang4 immobilised on CM5 chip, peptide injected
Description: as §1

[4] = biological target: T1, recombinant human Ang1 carrier-free …; assay: SPR (BIAcore), Ang1 immobilised on CM5, peptide 25-1.56 µM, 1:1 Langmuir fit
Description: (§2) Peptide-protein binding was analyzed using surface plasmon resonance. […] Solutions containing 10-50 μM of CGEN-H2 [SEQ ID NO: 1], CGEN-H3 [SEQ ID NO: 2], CGEN-A8 [SEQ ID NO: 3], CGEN-H7 [SEQ ID NO: 4], CGEN-G4 [SEQ ID NO: 5], CGEN-G6 [SEQ ID NO: 6], CGEN-F9 [SEQ ID NO: 7], CGEN-F12 [SEQ ID NO: 8], CGEN-C6 [SEQ ID NO: 9], CGEN-A11 [SEQ ID NO: 10], and CGEN-G2 [SEQ ID NO: 11] peptides were injected into the sample chamber of the BIACORE device at a rate of […] and the interaction was monitored using surface plasmon resonance. […]
(§3) Peptides CGEN-G6 [SEQ ID NO: 6], CGEN-F9 [SEQ ID NO: 7], CGEN-F12 [SEQ ID NO: 8], CGEN-A11 [SEQ ID NO: 10], and CGEN-G2 [SEQ ID NO: 11] were capable of binding to immobilized Ang1, Ang2, and Ang4 on the chip and were further analyzed for binding kinetics, as follows. Solutions containing different concentrations of CGEN-G6 [SEQ ID NO: 6], CGEN-F9 [SEQ ID NO: 7], CGEN-F12 [SEQ ID NO: 8], CGEN-A11 [SEQ ID NO: 10], and CGEN-G2 [SEQ ID NO: 11] peptides (as indicated in Table 2) were injected into the sample chamber of the BIACORE device at a rate of […] and the interaction was monitored using surface plasmon resonance.

[5] = biological target: T3, recombinant human Ang4 carrier-free …; assay: SPR (BIAcore), Ang4 immobilised on CM5, peptide 25-1.56 µM, 1:1 Langmuir fit
Description: as §2, §3

[6] = biological target: T2, recombinant human Ang2 carrier-free …; assay: SPR (BIAcore), Ang2 immobilised on CM5, peptide 25-1.56 µM, 1:1 Langmuir fit
Description: as §2, §3

[7] = biological target: T2, recombinant human Ang2 carrier-free …; assay: SPR (BIAcore), Ang2 immobilised on CM5, peptide 0.625-0.039 µM, 1:1 Langmuir fit
Description: as §2, §3

[8] = biological target: T1, recombinant human Ang1 carrier-free …; assay: SPR (BIAcore), Ang1 immobilised on CM5, peptide 0.625-0.039 µM, 1:1 Langmuir fit
Description: as §2, §3

[9] = biological target: T3, recombinant human Ang4 carrier-free …; assay: SPR (BIAcore), Ang4 immobilised on CM5, peptide 0.625-0.039 µM, 1:1 Langmuir fit
Description: as §2, §3

[10] = biological target: T2, recombinant human Ang2 carrier-free …; assay: SPR (BIAcore), Ang2 immobilised on CM5
Description: as §1

[11] = biological target: T1, recombinant human Ang1 carrier-free …; assay: SPR (BIAcore), Ang1 immobilised on CM5, peptide 1.25-0.039 µM, 1:1 Langmuir fit
Description: as §2, §3

[12] = biological target: T3, recombinant human Ang4 carrier-free …; assay: SPR (BIAcore), Ang4 immobilised on CM5, peptide 1.25-0.039 µM, 1:1 Langmuir fit
Description: as §2, §3

| Binder | reduction of Ang1 binding to Tie2 [1] [%] | Kd [4] [nM] | Kd [5] [nM] | Kd [6] [nM] | Kd [7] [nM] | Kd [8] [nM] | Kd [9] [nM] | further results |
| --- | --- | --- | --- | --- | --- | --- | --- | --- |
| Ac-QEELASILSKKAKLLNTLSRQSAALTNIERGLRGVR-NH2 (MW 4006.8) [CGEN-F9 (SEQ ID NO: 7)] | ≤ 34 | 21400 | 2820 | 3070 |  |  |  |  |
| Ac-DLMETVNNLLTMMSTSNSAKD-NH2 (MW 2356.8) [CGEN-G6 (SEQ ID NO: 6)] | ≤ 34 |  |  |  |  |  |  | binding result [10]: binds; Kd [11]: 13.3 nM; Kd [12]: 22.1 nM |
| Ac-ETFLSTNKLENQ-NH2 (MW 1464.7) [CGEN-A11 (SEQ ID NO: 10)] | ≤ 34 | 6740 | 3690 | 2360 |  |  |  |  |

Second part, led by results:

| reduction of Ang1 binding to Tie2 [1] [%] | Kd [4] [nM] | Kd [5] [nM] | Kd [6] [nM] | Kd [7] [nM] | Kd [8] [nM] | Kd [9] [nM] | Binder | further results |
| --- | --- | --- | --- | --- | --- | --- | --- | --- |
| ≤ 34 |  |  |  |  |  |  | Ac-TDMEAQLLNQTSRMDAQM-NH2 (MW 2124.5) [CGEN-C6 (SEQ ID NO: 9)] | binding result [2]: binds; binding result [3]: no binding (tested: 10-50 µM) |
|  |  |  |  | 56.6 | 17.4 | 25 | Ac-TQQVKQLEQALQNNTQWLKKLERAIKTIL-NH2 [CGEN-G2 (SEQ ID NO: 11)] |  |
|  |  |  |  | 5840 | 1.88 | 0.243 | Ac-QHSLRQLLVLLRHLVQERANASA-NH2 (MW 2694.3) [CGEN-F12 (SEQ ID NO: 8)] |  |
